Experimental data reported in publication PMC2275139.
Residue numbers refer to the chain shown, from its start. Like-named read-outs stand apart in the source and are kept apart here.

Tests used:
IcaR wild type [1] = target: T1, IcaR wild type (Staphylococcus epidermidis ATCC 35984 …, UniProt Q5HKQ1 1-185); assay: EMSA
T1 sequence: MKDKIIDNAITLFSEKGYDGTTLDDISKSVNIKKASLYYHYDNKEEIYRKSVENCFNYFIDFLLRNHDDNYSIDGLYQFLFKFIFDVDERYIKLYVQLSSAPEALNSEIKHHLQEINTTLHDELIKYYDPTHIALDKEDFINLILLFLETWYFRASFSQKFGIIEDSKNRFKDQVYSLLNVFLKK

IcaR K33E = target: T2, IcaR K33E (Staphylococcus epidermidis ATCC 35984 …, UniProt Q5HKQ1 1-185, K33E); assay: ITC
T2 sequence: T1 sequence with K33E

IcaR wild type [2] = target: T1, IcaR wild type; assay: EMSA; remark: listed apart in the source

B1: 16 bp probe (same center as 28E) (dsDNA)
DNA 1: TAACTAACGAAAGGTA
DNA 2: TACCTTTCGTTAGTTA
IcaR wild type [1]
  binding result: no binding

B2: 28E (dsDNA)
DNA 1: ACAACCTAACTAACGAAAGGTAGGTGAA
DNA 2: TTCACCTACCTTTCGTTAGTTAGGTTGT
IcaR K33E
  binding result: no binding

B3: 24E (dsDNA)
DNA 1: AACCTAACTAACGAAAGGTAGGTG
DNA 2: CACCTACCTTTCGTTAGTTAGGTT
IcaR wild type [2]
  binding result: binds
